“Also recorded” adds a separate entry of the source.
How the values were obtained:
β2AR [1] = assay: [3H]-DHA competition binding on β2AR reconstituted in HDL particles, with or without Gs or Nb80; set-up: species or system human; settings: β2AR/HDL + Nb80 versus alone
β2AR-T4L [2] = target: T1, β2AR-T4L (Homo sapiens, UniProt P07550, DEL231-262, form not given); assay: [3H]-DHA competition binding on β2AR-T4L reconstituted in HDL particles, with or without Nb80; settings: β2AR-T4L/HDL
T1 construct: The β2AR and β2AR-T4L (both truncated at position 365) purified as previously described (Rosenbaum et al. 2007); fused on or other part: T4 lysozyme inserted in place of the third intracellular loop between TM5 and TM6 as a crystallisation handle (published construct: residues 2-161, C54T/C97A); Reconstituted in HDL particles

β2AR-T4L [3] = assay: as above; set-up: species or system human; settings: β2AR-T4L/HDL + Nb80 versus alone
β2AR [4] = target: T2, β2AR (Homo sapiens, UniProt P07550); assay type: binding; settings: full-length β2AR membranes, Nb80 versus irrelevant nanobody
β2AR [5] = assay: Size exclusion chromatography of nanobody with purified agonist- or inverse agonist-bound β2AR; assay type: binding, human; settings: 20 μM β2AR bound to agonist or inverse agonist, 40 μM nanobody
Method: The mixture was then analyzed by Size Exclusion Chromatography (SEC), which separates protein on the basis of size. Seven of the nanobodies bound to purified β2AR and migrated as a complex on SEC only in the presence of agonist and not an inverse agonist (an example is shown in FIG. 1, Panel a, FIGS. 3A, 3B, and FIG. 4).
Agonist selective nanobodies were identified by size exclusion chromatography following incubation of 20 μM agonist or inverse agonist-(carazolol-) bound β2AR-365N for one hour at RT in the absence or presence of 40 μM nanobody.

human β1AR = human β1AR (Homo sapiens, UniProt P08588); assay: [3H]-DHA competition binding on β1AR with or without Nb80
From the text: Active state stabilizing Nanobodies that are cross-reactive to related receptors can be used as a tool to stabilize a conformational state of those related receptors. […] Using the PISA server (Krissinel & Henrick, 2007) and based on the crystal structure of the Nb80-β2AR complex, 30 β2AR AA residues were identified to interact with Nb80 in the β2AR-Nb80 interface. […] The remaining interface residues are lysines in β2AR and have been substituted by arginines in β1AR corresponding to conserved substitutions (shown in grey boxes in FIG. 17). It thus appears that both receptors share a very similar binding site for Nb80. Based on this analysis, we also measured the effect of Nb80 on the affinity of β1AR for the agonist isoproterenol and the inverse agonist […] (FIG. 18).

dopamine D1 receptor = dopamine D1 receptor (Homo sapiens, UniProt P21728); assay: Effect of Nb80 on unrelated receptor; assay type: binding; settings: data not shown
β2AR [6] = target: T2, β2AR; settings: agonist competition binding, Sf9 membranes
From the text: The IC50 values used for calculations of Ki values were obtained from means of pIC50 values determined by nonlinear regression analysis using Prism (GraphPad Software, San Diego, Calif.) and the s.e. interval from pIC50±s.e.

β2AR [7] = target: T2, β2AR; assay: Fluorescent (CPM) thermal stability assay of detergent-solubilized agonist-bound β2AR; set-up: made in house
Method: (§1) The effect of conformational selective nanobodies on the thermostability and the subsequent aggregation of the β2AR receptor was analyzed using a fluorescent thermal stability assay (FIG. 13) and size exclusion chromatography (FIGS. 14A and 14B).
The fluorescent thermal stability assay makes use of the thiol-specific fluorochrome N-[4-(7-diethylamino-4-methyl-3-coumarinyl)phenyl]maleimide (CPM) to measure the chemical reactivity of the native cysteines embedded in the protein interior as a sensor for the overall integrity of the folder state of membrane proteins (Alexandrov et al. 2008). For the fluorescent thermal stability assay, detergent-solubilized receptor (in 0.1% dodecylmaltoside, 100 mM NaCl and 20 mM Hepes pH 7.5) was pre-incubated with isoproterenol (10 μM) in the presence or absence of a 2:1 molar excess of Nb80 for one hour at RT. Samples were then mixed with CPM fluorophore and incubated for two minutes at temperatures ranging from 10° C. to 94° C. and fluorescence emission was collected. […] Unfolding transitions could be described by a simple two-state model, including the native (folded) and the denaturated state, representing the lower and upper plateaus of the melting curves.

β2AR [8] = target: T2, β2AR; assay: Temperature-induced aggregation of agonist-bound β2AR analyzed by SEC; set-up: made in house; settings: isoproterenol 10 μM, 2:1 molar excess of Nb80, 10 minutes at increasing temperatures
Method: as §1
We also analyzed the effect of Nb80 on the thermal unfolding and aggregation of the agonist-bound receptor by size exclusion chromatography (SEC). For this experiment, dodecylmaltoside-solubilized receptor was pre-incubated with isoproterenol (10 μM) in the presence or absence of a 2:1 molar excess of Nb80 for 45 minutes at RT. Samples were next incubated for 10 minutes at increasing temperatures and subsequently analyzed by SEC (FIGS. 14A and 14B).

β2AR [9] = target: T2, β2AR; assay: Monobromobimane fluorescence of purified mBBr-labeled β2AR; assay type: biochemical; set-up: made in house; settings: 1 μM nanobody, β2AR bound to full agonist isoproterenol
From the text: To investigate the effect of nanobodies on movement of the cytoplasmic domain of TM6 we labeled purified β2AR at C265 with monobromobimane (mBB-β2AR). […] In mBB-β2AR, the addition of agonist together with G protein results in larger fluorescent changes than either agonist or G protein alone. This is compatible with the cooperative interactions observed in agonist competition binding assays (Yao et al. 2009).
Purified β2AR was reacted with 1:1 equivalent of monobromobimane (mBBr, Invitrogen) in 100 mM NaCl, 20 mM HEPES, pH 7.5, 0.1% dodecyl maltoside and incubated overnight on ice in the dark. The fluorophore-labeled receptor was purified right before use by gel filtration on a desalting column equilibrated with the same buffer. […] All experiments were performed at 25° C. […] To determine the effect of nanobodies and ligands, three individual labeled protein samples were incubated with 1 μM nanobody or 10 μM Isoproterenol or both. Emission spectra of the samples were taken after 1 hour incubation.

β2AR [10] = target: T2, β2AR; assay: [3H]-DHA competition binding on β2AR reconstituted in HDL particles, with or without Gs or Nb80; set-up: recombinant β2AR truncated at Gly365 (β2AR-365); made in house; host or cells: Sf9 insect cells; settings: β2AR/HDL

human β1AR, sequence (P08588 whole entry): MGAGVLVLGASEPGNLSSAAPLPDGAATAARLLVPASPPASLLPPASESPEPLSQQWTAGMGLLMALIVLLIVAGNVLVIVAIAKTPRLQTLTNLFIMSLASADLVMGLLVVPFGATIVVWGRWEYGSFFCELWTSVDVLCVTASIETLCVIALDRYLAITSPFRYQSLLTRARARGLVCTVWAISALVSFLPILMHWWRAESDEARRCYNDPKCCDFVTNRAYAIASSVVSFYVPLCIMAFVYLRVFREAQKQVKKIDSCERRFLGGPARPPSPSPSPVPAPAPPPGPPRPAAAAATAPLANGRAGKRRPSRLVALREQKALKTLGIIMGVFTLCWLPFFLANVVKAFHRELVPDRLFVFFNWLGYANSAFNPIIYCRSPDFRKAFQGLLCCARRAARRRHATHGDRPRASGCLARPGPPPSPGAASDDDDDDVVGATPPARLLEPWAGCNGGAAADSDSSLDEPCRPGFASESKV
dopamine D1 receptor, sequence (P21728 whole entry, species assumed): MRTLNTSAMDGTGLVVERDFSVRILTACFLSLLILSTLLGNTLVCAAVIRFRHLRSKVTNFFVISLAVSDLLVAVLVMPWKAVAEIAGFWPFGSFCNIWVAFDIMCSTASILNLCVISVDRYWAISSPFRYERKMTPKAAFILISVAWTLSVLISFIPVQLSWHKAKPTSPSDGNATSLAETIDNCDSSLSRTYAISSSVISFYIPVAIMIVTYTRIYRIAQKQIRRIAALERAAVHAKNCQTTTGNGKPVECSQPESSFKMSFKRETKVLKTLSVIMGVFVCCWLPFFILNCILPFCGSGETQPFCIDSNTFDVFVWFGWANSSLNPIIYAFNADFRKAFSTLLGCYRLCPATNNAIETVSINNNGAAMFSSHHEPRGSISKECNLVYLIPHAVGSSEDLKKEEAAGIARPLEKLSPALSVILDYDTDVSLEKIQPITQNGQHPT

B1: NB80: β2AR-specific nanobody, SEQ ID NO:4; lead nanobody stabilizing the active state (protein, listed as Lama glama)
VHH: QVQLQESGGGLVQAGGSLRLSCAASGSIFSINTMGWYRQAPGKQRELVAAIHSGGSTNYANSVKGRFTISRDNAANTVYLQMNSLKPEDTAVYYCNVKDYGAVLYEYDYWGQGTQVTVSS
increase of isoproterenol affinity in the presence of Nb80 (β2AR [1]): 95 fold
effect of Nb80 on affinity for the inverse agonist ICI-118,551 (β2AR-T4L [2]): does not increase the affinity
increase of isoproterenol affinity in the presence of Nb80 (β2AR-T4L [3]): 60 fold
effect of Nb80 on β2AR affinity for ligands (β2AR [4]): increases β2AR affinity for agonists but not for antagonists
complex formation with β2AR on SEC (β2AR [5]): β2AR-agonist-Nb80 complex formation
effect of Nb80 on affinity of β1AR for CGP20712A (human β1AR): does not change the affinity
effect of Nb80 on affinity of β1AR for the agonist isoproterenol (human β1AR): increased affinity
effect of Nb80 on unrelated receptor (dopamine D1 receptor): No such effect
enhancement of the affinity of β2AR for the agonist isoproterenol in the presence of nanobody (β2AR [6]): two- to thirty-fold
apparent melting temperature for β2AR with Nb80 (β2AR [7]; DDM-solubilized isoproterenol-bound β2AR, 12.0° C. without Nb80): 24 °C
increase of melting temperature (Tm) of the agonist-bound receptor (β2AR [7]; isoproterenol 10 μM, 2:1 molar excess of Nb80): 12 °C
effect on temperature-induced aggregation of agonist-bound receptor (SEC) (β2AR [8]): protects the agonist-bound receptor against temperature-induced aggregation
nanobody-induced change of mBBr fluorescence (β2AR [9]): larger changes were observed when both agonist and nanobody were added together; also recorded: stabilizes a more active state of the β2AR
effect of Nb80 on affinity for the inverse agonist ICI-118,551 (β2AR [10]): does not increase the affinity; also recorded: little effect

Reference: patent US11162953B2, “Protein binding domains stabilizing functional conformational states of GPCRS and uses thereof” (priority 2010, dated 2021)
